Like-named read-outs stand apart in the source and are kept apart here.
Experiments:
[1] = molecular target: T1, LmGSTs5 (Locusta migratoria, UniProt F4YUJ4); experiment: inhibition of CDNB-GSH conjugation, absorbance […] nm; type: biochemical; settings: read-out: I50
T1 construct: E. coli JM109
T1 sequence (F4YUJ4 1-202): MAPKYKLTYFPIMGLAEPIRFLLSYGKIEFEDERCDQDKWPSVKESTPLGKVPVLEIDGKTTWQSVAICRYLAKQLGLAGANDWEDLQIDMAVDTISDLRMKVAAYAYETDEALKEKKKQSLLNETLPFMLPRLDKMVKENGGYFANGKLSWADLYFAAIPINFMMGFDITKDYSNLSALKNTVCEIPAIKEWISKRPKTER

[2] = molecular target: T2, LmGSTu1 (Locusta migratoria, UniProt F4YUI9); experiment: as above; type: biochemical; settings: read-out: I50
T2 construct: E. coli BL21 (DE3)
T2 sequence (F4YUI9 1-214): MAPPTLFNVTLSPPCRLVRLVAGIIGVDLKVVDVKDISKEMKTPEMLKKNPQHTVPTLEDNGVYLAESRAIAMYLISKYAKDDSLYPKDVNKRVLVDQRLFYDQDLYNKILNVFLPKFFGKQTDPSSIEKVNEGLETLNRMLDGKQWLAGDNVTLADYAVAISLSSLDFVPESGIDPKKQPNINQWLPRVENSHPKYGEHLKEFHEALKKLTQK

[3] = molecular target: T3, LmGSTd1 (Locusta migratoria, UniProt E7BTM5); experiment: as above; type: biochemical; settings: read-out: I50
T3 construct: E. coli JM109
T3 sequence (E7BTM5 1-218): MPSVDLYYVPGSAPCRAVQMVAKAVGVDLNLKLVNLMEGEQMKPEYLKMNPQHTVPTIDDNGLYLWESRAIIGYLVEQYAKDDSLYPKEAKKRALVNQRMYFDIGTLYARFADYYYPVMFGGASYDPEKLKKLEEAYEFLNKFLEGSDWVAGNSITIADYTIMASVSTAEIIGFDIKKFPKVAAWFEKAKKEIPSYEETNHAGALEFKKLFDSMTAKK

[4] = molecular target: T4, LmGSTt1 (Locusta migratoria, UniProt F4YUJ7); experiment: as above; type: biochemical; settings: read-out: I50
T4 construct: E. coli BL21 (DE3)
T4 sequence (F4YUJ7 1-231): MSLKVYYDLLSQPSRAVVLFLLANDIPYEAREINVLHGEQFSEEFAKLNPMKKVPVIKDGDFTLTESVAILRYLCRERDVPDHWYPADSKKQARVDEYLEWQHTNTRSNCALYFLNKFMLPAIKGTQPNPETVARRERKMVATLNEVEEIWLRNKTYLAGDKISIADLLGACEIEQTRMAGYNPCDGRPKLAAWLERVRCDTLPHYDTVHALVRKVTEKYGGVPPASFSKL

[5] = molecular target: T3, LmGSTd1; experiment: GSH conjugation, absorbance […] nm, non-linear regression; type: biochemical; settings: read-out: CDNB / Km; 5 mM GSH, pH 7.5, 28°C; apparent
[6] = molecular target: T2, LmGSTu1; experiment: as above; type: biochemical; settings: read-out: CDNB / Km; 5 mM GSH, pH 7.5, 28°C; apparent
[7] = molecular target: T4, LmGSTt1; experiment: as above; type: biochemical; settings: read-out: CDNB / Km; 5 mM GSH, pH 7.5, 28°C; apparent
[8] = molecular target: T1, LmGSTs5; experiment: as above; type: biochemical; settings: read-out: CDNB / Km; 5 mM GSH, pH 7.5, 28°C; apparent
[9] = substrate: O=[N+]([O-])c1ccc(Cl)c(Cl)c1; experiment: purified protein; type: biochemical, Locusta migratoria; settings: 5 mM GSH, pH 7.5, 28°C, apparent
[10] = substrate: O=[N+]([O-])c1ccc(CCl)cc1; experiment: purified protein; type: biochemical, Locusta migratoria; settings: 5 mM GSH, pH 7.5, 28°C, apparent
[11] = substrate: O=[N+]([O-])c1ccc(Cl)c(Cl)c1; experiment: purified protein; settings: 5 mM GSH, pH 7.5, 28°C, apparent
[12] = substrate: O=[N+]([O-])c1ccc(CCl)cc1; experiment: purified protein; settings: 5 mM GSH, pH 7.5, 28°C, apparent
[13] = 2 mM CDNB, 5 mM GSH, 0.1 M phosphate pH 7.5, 28°C

For `C=C(CC)C(=O)c1ccc(OCC(=O)O)c(Cl)c1Cl` [ethacrynic acid], the IC50 [1] was 33.8 µM, the IC50 [2] was 3.27 µM and the IC50 [3] was 2.2 µM. It also gave an IC50 [4] of 4.7 µM.

Molecule reactive blue has an IC50 [1, 13] of 0.98 µM, an IC50 [2, 13] of 3.4 µM and an IC50 [3, 13] of 4.58 µM. For the same molecule, the IC50 [4, 13] was 12.4 µM.

With `O=[N+]([O-])c1ccc(Cl)c([N+](=O)[O-])c1` [CDNB, 1-chloro-2,4-dinitrobenzene] the Km [5] was 500 ± 25 µM, the Km [6] was 250 ± 25 µM and the Km [7] was 4730 ± 350 µM. It also gave a Km [8] of 1170 ± 290 µM.

B1: LmGSTd1 (Locusta migratoria) (protein)
chain: MPSVDLYYVPGSAPCRAVQMVAKAVGVDLNLKLVNLMEGEQMKPEYLKMNPQHTVPTIDDNGLYLWESRAIIGYLVEQYAKDDSLYPKEAKKRALVNQRMYFDIGTLYARFADYYYPVMFGGASYDPEKLKKLEEAYEFLNKFLEGSDWVAGNSITIADYTIMASVSTAEIIGFDIKKFPKVAAWFEKAKKEIPSYEETNHAGALEFKKLFDSMTAKK
notes: E. coli JM109
Molecule B1 has a Km [9] of 1000 ± 87 µM, a Vmax [9] of 0.0004 µmol/min/mg and a Km [10] of 6380 ± 570 µM. The Vmax [10] was 0.049 µmol/min/mg.

B2: LmGSTu1 (Locusta migratoria) (protein)
chain: MAPPTLFNVTLSPPCRLVRLVAGIIGVDLKVVDVKDISKEMKTPEMLKKNPQHTVPTLEDNGVYLAESRAIAMYLISKYAKDDSLYPKDVNKRVLVDQRLFYDQDLYNKILNVFLPKFFGKQTDPSSIEKVNEGLETLNRMLDGKQWLAGDNVTLADYAVAISLSSLDFVPESGIDPKKQPNINQWLPRVENSHPKYGEHLKEFHEALKKLTQK
In the case of B2, the Km [11] is reported as 730 ± 64 µM, the Vmax [11] is reported as 0.00098 µmol/min/mg and the Km [12] is reported as 1580 ± 170 µM. For the same molecule, the Vmax [12] was 0.00677 µmol/min/mg.

B3: LmGSTt1 (Locusta migratoria) (protein)
chain: MSLKVYYDLLSQPSRAVVLFLLANDIPYEAREINVLHGEQFSEEFAKLNPMKKVPVIKDGDFTLTESVAILRYLCRERDVPDHWYPADSKKQARVDEYLEWQHTNTRSNCALYFLNKFMLPAIKGTQPNPETVARRERKMVATLNEVEEIWLRNKTYLAGDKISIADLLGACEIEQTRMAGYNPCDGRPKLAAWLERVRCDTLPHYDTVHALVRKVTEKYGGVPPASFSKL
B3 showed a Km [12] of 7850 ± 1080 µM and a Vmax [12] of 0.00143 µmol/min/mg.

B4: LmGSTs5 (Locusta migratoria) (protein)
chain: MAPKYKLTYFPIMGLAEPIRFLLSYGKIEFEDERCDQDKWPSVKESTPLGKVPVLEIDGKTTWQSVAICRYLAKQLGLAGANDWEDLQIDMAVDTISDLRMKVAAYAYETDEALKEKKKQSLLNETLPFMLPRLDKMVKENGGYFANGKLSWADLYFAAIPINFMMGFDITKDYSNLSALKNTVCEIPAIKEWISKRPKTER
For B4, the Km [11] was 1730 ± 240 µM, the Vmax [11] was 0.00741 µmol/min/mg and the Km [12] was 470 ± 83 µM. For the same molecule, the Vmax [12] was 0.156 µmol/min/mg.

Reference: paper PMC3591310, “Characterization and Functional Analysis of Four Glutathione S-Transferases from the Migratory Locust, Locusta migratoria” (PLoS ONE, 2013)
